According to US7435413 (dated 2008):

Biological target: T1, sTF (soluble human tissue factor 1-219) (human)
T1 chain: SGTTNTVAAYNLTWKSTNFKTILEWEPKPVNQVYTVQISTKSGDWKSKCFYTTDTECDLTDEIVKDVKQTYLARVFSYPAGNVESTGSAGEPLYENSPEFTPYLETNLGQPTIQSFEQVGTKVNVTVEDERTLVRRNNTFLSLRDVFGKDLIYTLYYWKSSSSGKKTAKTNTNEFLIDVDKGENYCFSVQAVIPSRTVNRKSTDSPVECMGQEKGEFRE
Experiment: SPR

B1: 5G6 (antibody, V domains shown)
VH: EVLLQQSGPELVKPGASVKIPCKASGYTFTEYNMDWVKQSHGKSLEWIGDINPNNGNTIYNQKFKGKATLTVDKSSTTAYLELRSLTSEDTAVYFCARDHDYYFDFWGQGTTLTVSS
VL: DIQMTQTPASQSASLGESVTITCLASQTIDTWLAWYQQKPGKSPQLLIYAATSLADGVPSRFSGSGSGTKFSFKISSLQAEDFVSYYCQQPYSSPYTFGGGTKLELKR
  Kd: 1.7 nM
